Substitutions are numbered along the chain they refer to.
B1: SEQ ID NO 100 (designed binder, not shown: small tags and cut ends)
chain: MLPAPKNLVVSRVTEDSARLSWTAPDAAFDSFYIWYEEVMYLGEAIVLTVPGSERSYDLTGLKPGTEYNVPIPGVKGGHSSPPLSAIFTT
notes: FN3 domain, hit of the apical domain panning
B2: SEQ ID NO 14 (designed binder, not shown: small tags and cut ends)
chain: MLPAPKNLVVSRVTEDSARLSWTAPDAAFDSFPIYYVENVVWGEAIVLTVPGSERSYDLTGLKPGTEYWEVIIGVKGGQCSRPLSAIFTT
notes: as for B1
B3: SEQ ID NO 16 (designed binder, not shown: small tags and cut ends)
chain: MLPAPKNLVVSRVTEDSARLSWTAPDAAFDSFGIAYREFRPSGEAIVLTVPGSERSYDLTVETGYRNEVVICGVKGGPWSGPLSAIFTT
notes: as for B1
B4: SEQ ID NO 2 (designed binder, not shown: small tags and cut ends)
chain: MLPAPKNLVVSEVTEDSARLSWQGVARAFDSFMINYSELFWMGEAIVLTVPGSERSYDLTGLKPGTEYVVRIKGVKGGKGSWPLHAHFTT
notes: as for B1
B5: SEQ ID NO 20 (designed binder, not shown: small tags and cut ends)
chain: MLPAPKNLVVARVTEDSARLSWTAPDAAIDSFPIDYSEYWWGGEAIVLTVPGSERSYDLTGLKPGTEYPVLITGVKGGYRSGPLSAIFTT
notes: as for B1
B6: SEQ ID NO 21 (designed binder, not shown: small tags and cut ends)
chain: MLPAPKNLVVSRVTEDSARLSWTAPDAAFDSFSIRYNEFIVAGEAIVLTVPGSERSYDLTGLKPGTEYDVPIAGVKGGGASWPLSAIVTT
notes: as for B1
B7: SEQ ID NO 22 (designed binder, not shown: small tags and cut ends)
chain: MLPAPKNLVVSRVTEDSARLSWTAPDAAFDSFWYLELQFAGEAIVLTVPGSERSYDLTGLKPGTEYNVPITGVKGGIISFPLSAIFTT
notes: as for B1
B8: SEQ ID NO 23 (designed binder, not shown: small tags and cut ends)
chain: MLPAPKNLVVSRVTEDSARLSWTAPDAAFDSFAIWYHEWYGDGEAIVLTVPGSERSYDLTGPKPGTEYRVRISGVKGGFESGPLSAIFTT
notes: as for B1
B9: SEQ ID NO 24 (designed binder, not shown: small tags and cut ends)
chain: MLPAPKNLVVSRVTEDSARLSWTAPDAAFDSFMIRYQEGTRWGEAIVLTVPGSERSYDLTGLKPGTEYIVMIAGVKGGQISLPLSAIFTT
notes: as for B1
B10: SEQ ID NO 25 (designed binder, not shown: small tags and cut ends)
chain: B1 chain with Y33P, E37L, V39K, M40S, L42Q, N69V, P73I, H79R, S80D, P82C
notes: as for B1
B11: SEQ ID NO 27 (designed binder, not shown: small tags and cut ends)
chain: MLPAPKNLVVSRVTEDSARLSWTAPDAAFDSFRISYAETVRQGEAIVLTVPGSERSYDLTVETGYRNWVMILGVKGGPGSLPLSAIFTT
notes: as for B1
B12: SEQ ID NO 31 (designed binder, not shown: small tags and cut ends)
chain: MLPAPKNLVVSRVTEDSARLSWTAPDAAFDSFTIEYSEHPIDGEAIPLFVPGSERSYDLTGLKPGTEYYVRIHGVKGGWFSHPLWAFFTT
notes: as for B1
B13: SEQ ID NO 35 (designed binder, not shown: small tags and cut ends)
chain: MLPAPKNLVVSRVTEDSARLSWTAPDAAFDSFPISYIESIADGEAIVLTVPGSERSYDLTGLKPGTEYWVAIVGVKGGPFSWSLSAIVTT
notes: as for B1
B14: SEQ ID NO 241 (designed binder, not shown: small tags and cut ends)
chain: MLPAPKNLVVSRVTEDSARLSWTAPDAAFDSFFIGYLEPQPPGEAIHLGVPGSERSYDLTGLKPGTEYNVTIQGVKGGFPSIPLFASFTT
B15: SEQ ID NO 225 (designed binder, not shown: small tags and cut ends)
chain: MLPAPKNLVVSRVTEDSARLSWTAPDAAFDSFYIAYAEPRPDGEAILLQVPGSERSYDLTGLKPGTEYSVLIHGVKGGLLSSPLSASFTT
B16: SEQ ID NO 206 (designed binder, not shown: small tags and cut ends)
chain: B15 chain with L47G, Q49D, S87I
B17: SEQ ID NO 207 (designed binder, not shown: small tags and cut ends)
chain: B15 chain with L47H, Q49S, S85A, S87Y
B18: SEQ ID NO 209 (designed binder, not shown: small tags and cut ends)
chain: B15 chain with E54C, S85T, S87I
notes: also called ABX1198
B19: SEQ ID NO 211 (designed binder, not shown: small tags and cut ends)
chain: B15 chain with L47Q, Q49H, S85V, S87I
B20: SEQ ID NO 212 (designed binder, not shown: small tags and cut ends)
chain: B15 chain with L47W, Q49A, S85H, S87Q
B21: SEQ ID NO 214 (designed binder, not shown: small tags and cut ends)
chain: B15 chain with L47G, S85C, S87E
B22: SEQ ID NO 215 (designed binder, not shown: small tags and cut ends)
chain: B15 chain with L47V, Q49W, S85I, S87E
B23: SEQ ID NO 217 (designed binder, not shown: small tags and cut ends)
chain: B15 chain with L47I, Q49E, S85R, S87V
B24: SEQ ID NO 218 (designed binder, not shown: small tags and cut ends)
chain: B15 chain with L47H, Q49V, S87I
B25: SEQ ID NO 219 (designed binder, not shown: small tags and cut ends)
chain: B15 chain with L47S, Q49K, S85E, S87I
B26: SEQ ID NO 224 (designed binder, not shown: small tags and cut ends)
chain: B15 chain with Q49R, S85V, S87E
B27: SEQ ID NO 226 (designed binder, not shown: small tags and cut ends)
chain: B15 chain with L47G, Q49H, S85T
B28: SEQ ID NO 227 (designed binder, not shown: small tags and cut ends)
chain: B15 chain with L47G, Q49R, S87I
B29: SEQ ID NO 228 (designed binder, not shown: small tags and cut ends)
chain: B15 chain with L47V, Q49R, S85A
B30: SEQ ID NO 229 (designed binder, not shown: small tags and cut ends)
chain: B15 chain with L47Q, Q49L, S85V, S87H
B31: SEQ ID NO 230 (designed binder, not shown: small tags and cut ends)
chain: B15 chain with L47W, Q49L, S85V, S87F
B32: SEQ ID NO 233 (designed binder, not shown: small tags and cut ends)
chain: B15 chain with L47Q, Q49F, S85K, S87Y
B33: SEQ ID NO 234 (designed binder, not shown: small tags and cut ends)
chain: B15 chain with L47V, Q49V, S87I
B34: SEQ ID NO 236 (designed binder, not shown: small tags and cut ends)
chain: B15 chain with S85D, S87E
B35: SEQ ID NO 237 (designed binder, not shown: small tags and cut ends)
chain: B15 chain with L47V, Q49A, S85Y
B36: SEQ ID NO 239 (designed binder, not shown: small tags and cut ends)
chain: B15 chain with L47Q, Q49V, S85Y, S87I

These binders were tested against T1, recombinant biotinylated CD71 extracellular domain (Sino Biologics) with an N-terminal 6His tag (human, UniProt P02786 89-760, biotinylated (site not stated)) (assay: primary solution ELISA screen, signal on hCD71 over HSA).
T1 construct: extracellular domain; also called hCD71; huCD71 ECD
T1 sequence (P02786 other isoform, or with tags, fused parts or gaps): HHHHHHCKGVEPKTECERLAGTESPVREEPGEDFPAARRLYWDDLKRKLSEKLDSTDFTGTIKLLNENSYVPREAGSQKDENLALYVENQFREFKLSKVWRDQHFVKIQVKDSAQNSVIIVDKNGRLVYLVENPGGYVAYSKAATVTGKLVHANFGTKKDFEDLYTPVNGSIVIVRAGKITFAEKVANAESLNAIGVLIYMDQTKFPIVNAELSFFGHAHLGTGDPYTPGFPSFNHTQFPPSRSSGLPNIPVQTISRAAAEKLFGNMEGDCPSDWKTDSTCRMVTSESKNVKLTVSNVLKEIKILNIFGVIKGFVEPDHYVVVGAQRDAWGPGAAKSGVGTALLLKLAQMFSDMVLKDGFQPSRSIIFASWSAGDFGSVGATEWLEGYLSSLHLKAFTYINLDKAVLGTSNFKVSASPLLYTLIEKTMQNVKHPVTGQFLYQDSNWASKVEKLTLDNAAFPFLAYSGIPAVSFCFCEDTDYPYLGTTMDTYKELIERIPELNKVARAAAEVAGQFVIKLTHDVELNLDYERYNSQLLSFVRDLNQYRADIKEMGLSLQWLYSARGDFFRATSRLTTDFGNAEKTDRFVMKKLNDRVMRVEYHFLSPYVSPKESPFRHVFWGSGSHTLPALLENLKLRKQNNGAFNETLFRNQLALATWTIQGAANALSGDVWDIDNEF

Binder | hCD71:HSA
B1 | 79
B2 | 1280
B3 | 95
B4 | 14
B5 | 43
B6 | 85
B7 | 105
B8 | 110
B9 | 374
B10 | 58
B11 | 127
B12 | 138
B13 | 106

These binders were tested against T1, recombinant biotinylated CD71 … (assay: primary solution ELISA screen).

Binder | RLU [RLU]
B1 | 408000
B2 | 1.4e+06
B3 | 657000
B4 | 383000
B5 | 791000
B6 | 579000
B7 | 3.15e+06
B8 | 1.39e+06
B9 | 2.45e+06
B10 | 222000
B11 | 297000
B12 | 642000
B13 | 1.99e+06

Each binder was assayed against T2, human CD71 extracellular domain (human, UniProt P02786 89-760, biotinylated) (assay: solution ELISA screen (luminescence)).
T2 construct: extracellular domain; also called hCD71; huCD71 ECD
T2 sequence (P02786 other isoform, or with tags, fused parts or gaps): as above

Binder | RLU [RLU]
B14 | 3.1e+06
B15 | 4.06e+06
B16 | 828000
B17 | 2.74e+06
B18 | 6.2e+06
B19 | 660000
B20 | 467000
B21 | 393000
B22 | 2.02e+06
B23 | 3.48e+06
B24 | 144000
B25 | 460000
B26 | 3.55e+06
B27 | 2.15e+06
B28 | 635000
B29 | 3.88e+06
B30 | 1.44e+06
B31 | 1.1e+06
B32 | 772000
B33 | 4.51e+06
B34 | 4.07e+06
B35 | 4.58e+06
B36 | 559000

These binders were tested against T3, CD71 apical domain (human, UniProt P02786 189-383, limits assumed) (assay: solution ELISA screen (luminescence)).
T3 construct: domain: apical domain
T3 sequence (P02786 189-383 limits assumed): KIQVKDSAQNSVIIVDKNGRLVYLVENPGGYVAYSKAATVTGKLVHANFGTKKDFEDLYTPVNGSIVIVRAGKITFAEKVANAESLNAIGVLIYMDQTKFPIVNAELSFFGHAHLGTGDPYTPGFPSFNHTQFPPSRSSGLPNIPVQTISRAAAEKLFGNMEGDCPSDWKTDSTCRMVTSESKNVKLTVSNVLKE

Binder | RLU [RLU]
B14 | 5.05e+06
B15 | 7.38e+06
B16 | 5.22e+06
B17 | 7.11e+06
B18 | 8.3e+06
B19 | 4.74e+06
B20 | 5.09e+06
B21 | 4.3e+06
B22 | 5.84e+06
B23 | 6.81e+06
B24 | 2.85e+06
B25 | 4.95e+06
B26 | 6.82e+06
B27 | 6.38e+06
B28 | 4.99e+06
B29 | 7.04e+06
B30 | 5.77e+06
B31 | 6.11e+06
B32 | 5.61e+06
B33 | 7.04e+06
B34 | 7.41e+06
B35 | 7.01e+06
B36 | 4.65e+06

These binders were tested against T2, human CD71 extracellular domain (assay: solution ELISA screen, signal ratio to HSA control).

Binder | hCD71:HSA [ratio]
B14 | 117
B15 | 239
B16 | 59.1
B17 | 22.6
B18 | 348
B19 | 50.6
B20 | 26.8
B21 | 13
B22 | 90.4
B23 | 214
B24 | 10.2
B25 | 38.8
B26 | 136
B27 | 135
B28 | 22.5
B29 | 131
B30 | 93.4
B31 | 34.4
B32 | 35.1
B33 | 216
B34 | 262
B35 | 165
B36 | 26.5

Each binder was assayed against T3, CD71 apical domain (assay: solution ELISA screen, signal ratio to HSA control).

Binder | apical domain:HSA [ratio]
B14 | 190
B15 | 435
B16 | 373
B17 | 58.8
B18 | 466
B19 | 363
B20 | 292
B21 | 143
B22 | 261
B23 | 420
B24 | 202
B25 | 418
B26 | 261
B27 | 400
B28 | 177
B29 | 238
B30 | 374
B31 | 191
B32 | 255
B33 | 338
B34 | 477
B35 | 253
B36 | 221
